Data published in US8846873B2, “Antibodies directed to GPNMB and uses thereof” (Celldex Therapeutics, Inc., priority 2004, dated 2014).

Experiments:
GPNMB [1] = target: T1, GPNMB (Homo sapiens, UniProt Q14956); experiment: Binning of antibodies (Luminex competitive binding); conditions: three bins of six anti-GPNMB antibodies
T1 construct: made in house; host or cells: HEK 293
T1 sequence (Q14956 23-492): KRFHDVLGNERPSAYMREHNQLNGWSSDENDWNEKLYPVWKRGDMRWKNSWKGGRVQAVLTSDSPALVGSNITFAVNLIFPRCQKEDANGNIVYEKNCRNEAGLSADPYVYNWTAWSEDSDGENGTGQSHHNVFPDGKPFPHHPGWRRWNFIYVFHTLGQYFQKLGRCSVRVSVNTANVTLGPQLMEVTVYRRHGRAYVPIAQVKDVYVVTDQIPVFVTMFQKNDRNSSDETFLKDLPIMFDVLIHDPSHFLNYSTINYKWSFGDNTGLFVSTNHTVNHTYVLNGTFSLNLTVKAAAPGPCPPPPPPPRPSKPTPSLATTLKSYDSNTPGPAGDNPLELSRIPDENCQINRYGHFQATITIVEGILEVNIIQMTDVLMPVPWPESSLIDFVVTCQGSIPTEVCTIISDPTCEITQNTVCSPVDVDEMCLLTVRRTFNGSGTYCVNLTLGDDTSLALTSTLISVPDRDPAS
Procedure: Certain antibodies, described herein were binned in accordance with the protocol described in U.S. Patent Application Publication No. 20030157730. MxhIgG conjugated beads are prepared for coupling to primary antibody. The volume of supernatant needed is calculated using the following formula: (n+10)×50 μL (where n=total number of samples on plate). Where the concentration is known, 0.5 μg/mL is used. Bead stock is gently vortexed, then diluted in supernatant to a concentration of 2500 of each bead per well or 0.5×10^5/mL and incubated on a shaker in the dark at RT overnight, or 2 hours if at a known concentration of […]. Following aspiration, 50 μL of each bead is added to each well of filter plate, then washed once by adding 100 μL/well wash buffer and aspirating. Antigen and controls are added to filter plate 50 μL/well then covered and allowed to incubate in the dark for 1 hour on shaker. Following a wash step, a secondary unknown antibody is added at 50 μL/well using the same dilution (or concentration if known) as is used for the primary antibody. The plates are then incubated in the dark for 2 hours at RT on shaker followed by a wash step. Next, 50 μL/well biotinylated mxhIgG diluted 1:500 is added and allowed to incubate in the dark for 1 hour on shaker at RT. […]

SK-Mel-2 cells = experiment: Flow cytometry of CR011 binding to cell surface CG56972/GPNMB; design: species or system human; conditions: SK-MEL-2, positive control
Procedure: (§1) Flow Cytometry: Quantitative analysis of GPNMB expression on the cell surface of cell lines was determined by flow cytometry. […] Cells were fixed in 1% paraformaldehyde/PBS and examined on a Becton Dickinson FACSCalibur flow cytometer. Data analysis was performed with Becton Dickinson Cell Quest software version 3.3 and the geometric mean fluorescence intensity ratio (GMR) was determined for each cell type.
as §1, with “CG56972” for “GPNMB”, “the” for “the cell”, “cytometry (FACS).” for “cytometry.”

GPNMB [2] = target: T1, GPNMB; experiment: BiaCore 2000 biosensor binding of hybridoma supernatant mAb to GPNMB
Procedure: Certain Hybridoma cell supernatants (29) were analyzed for binding to GPNMB by BiaCore® 2000 biosensor equipped with a research-grade CMS sensor chip. A 1:25 dilution of cell supernatant was passed over a protein A surface for 5 min followed by washing the surface for 10 mins. Subsequently, GPNMB was injected for 90 sec. over the surface at a concentration of 880 nM followed by dissociation. Double-referenced binding data were obtained by subtracting the signal from a control flow cell and subtracting the baseline drift of a buffer injected just prior to the antigen injection. GPNMB binding ddata for each mAb was normalized for the amount of mAb captured on each surface. Normalized, drift corrected responses were also measured. The sensorgrams were fit to a simple 1:1 kinetic model.

[3] = mAb captured on protein A, GPNMB 880 nM, 1:1 kinetic model

B1: Mab1.15.1 (protein, listed as Homo sapiens)
chain: QVQLQESGPGLVKPSQTLSLTCTVSGGSISSFNYYWSWIRHHPGKGLEWIGYIYYSGSTYSNPSLKSRVTISVDTSKNQFSLTLSSVTAADTAVYYCARGYNWNYFDYWGQGTLVTVSSA
Q: Which Bin (GPNMB [1]) does the source give for B1 here?
A: Bin 2

Q: And the cell surface staining (SK-Mel-2 cells)?
A: strong cell surface staining

Q: What about the “binding to GPNMB” value (GPNMB [2]; 1:25 dilution of cell supernatant) of the same molecule?
A: strong binding

Q: And the Kd (GPNMB [2]; [3])?
A: 52 nM

Q: And the ka (GPNMB [2]; [3])?
A: 16524 M⁻¹ s⁻¹

Q: And the kd (GPNMB [2]; [3])?
A: 0.000855 s⁻¹
